Source: patent US20260274955A1 (JANUX THERAPEUTICS, published 2026)

Molecular target: T1, Anti-CD28 Fab (SEQ ID NOs: 202, 203)
T1 construct: biotinylated and captured on neutravidin coated plates in the phage ELISA
Test: phage ELISA on captured biotinylated Fab;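 note: wells preblocked with or without CD28 antigen, then clonal phage supernatant added briefly, washed, and bound phage read out by ELISA using HRP-linked anti-M13 antibody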
Protocol: (§1) Clonal phage were harvested as crude supernatants and screened via standard ELISAs. […] Prior to the addition of clonal phage, wells were incubated with blocking buffer and CD28 antigen or blocking buffer alone. Without washing or aspirating, clonal phage supernatants were then added to the wells and incubated for a short time. Wells were then washed followed by detection of bound phage using a horse radish conjugated anti-M13 antibody.

T1 sequence (VH, as listed by the source, chain 1 of 2): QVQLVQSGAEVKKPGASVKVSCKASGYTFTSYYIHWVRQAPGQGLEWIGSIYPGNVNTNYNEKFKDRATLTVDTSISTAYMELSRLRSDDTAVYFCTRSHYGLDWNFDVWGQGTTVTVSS
T1 sequence (VL, as listed by the source, chain 2 of 2): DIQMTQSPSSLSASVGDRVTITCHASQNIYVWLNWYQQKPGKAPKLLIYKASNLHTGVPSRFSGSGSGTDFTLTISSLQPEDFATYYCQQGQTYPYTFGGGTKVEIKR

Q: Which “Anti-CD28 Fab signal” value does the source give for YCDGHSPEYMTKCL [Phage-294] here?
A: Its value is 1.93.

Q: Which “Anti-CD28 Fab signal” value does the source give for YCDGHAPEYIYKCL [Phage-164] here?
A: The value was 2.18.

Q: How did the “Anti-CD28 Fab signal” value turn out when YCAGHLPEYFLKCL [Phage-156] was run?
A: The value was 2.19.

Q: How did the “Anti-CD28 Fab signal” value turn out when YCDGHMPEYIAKCL [Phage-154] was run?
A: Its value is 2.19.

Q: For YCEGHLPQYLAKCL [Phage-190], which “Anti-CD28 Fab signal” value is on record?
A: Its value is 2.12.

Q: For YCDGHLEEYKQKCL [Phage-165], which “Anti-CD28 Fab signal” value is on record?
A: The value was 2.18.

Q: With YCDGHAVEYMAKCL [Phage-161] as the binder, how does the “Anti-CD28 Fab signal” value read?
A: Its value is 2.18.

Q: With YCAGHLPEYMQKCL [Phage-182] as the binder, how does the “Anti-CD28 Fab signal” value read?
A: The value was 2.15.

Q: Which “Anti-CD28 Fab signal” value does the source give for YCDGHSPLYIWKCL [Phage-157] here?
A: Its value is 2.19.

Q: With YCDGHSPDYIWKCL [Phage-289] as the binder, how does the “Anti-CD28 Fab signal” value read?
A: Its value is 1.93.

Q: YCDGHLPEYIEKCL [Phage-159] was tested. Which “Anti-CD28 Fab signal” value did it give?
A: The value was 2.19.

Q: For YCDGHAPEYMLKCL [Phage-151], which “Anti-CD28 Fab signal” value is on record?
A: Its value is 2.2.

Q: With YCDGHAPQYMGKCL [Phage-227] as the binder, how does the “Anti-CD28 Fab signal” value read?
A: Its value is 2.06.

Q: Which “Anti-CD28 Fab signal” value does the source give for YCDGHAPDYMLKCL [Phage-152] here?
A: The value was 2.2.

Q: Which “Anti-CD28 Fab signal” value does the source give for YCMGHAPEYMEKCL [Phage-290] here?
A: The value was 1.93.

Q: YCDGHMPEYMEKCL [Phage-292] was tested. Which “Anti-CD28 Fab signal” value did it give?
A: The value was 1.93.

Q: For YCDGHMPEYMLKCL [Phage-199], which “Anti-CD28 Fab signal” value is on record?
A: Its value is 2.11.

Q: YCDGHAPQYMLKCL [Phage-194] was tested. Which “Anti-CD28 Fab signal” value did it give?
A: The value was 2.12.

Q: Which “Anti-CD28 Fab signal” value does the source give for YCDGHKAEYMDKCL [Phage-150] here?
A: Its value is 2.2.

Q: YCDGHTQEYIAKCL [Phage-167] was tested. Which “Anti-CD28 Fab signal” value did it give?
A: Its value is 2.17.

Q: For YCDGHSQEYIAKCL [Phage-265], which “Anti-CD28 Fab signal” value is on record?
A: Its value is 1.99.

Q: Which “Anti-CD28 Fab signal” value does the source give for YCEGHAEEYMQKCL [Phage-163] here?
A: The value was 2.18.

Q: How did the “Anti-CD28 Fab signal” value turn out when YCMGHLPQYMEKCL [Phage-212] was run?
A: The value was 2.08.

Q: For YCMGHLPQYMQKCL [Phage-166], which “Anti-CD28 Fab signal” value is on record?
A: Its value is 2.18.

Q: For YCVGHLPQYMEKCL [Phage-267], which “Anti-CD28 Fab signal” value is on record?
A: The value was 1.98.

Q: With YCDGHSDEYMAKCL [Phage-185] as the binder, how does the “Anti-CD28 Fab signal” value read?
A: The value was 2.14.

Q: Which “Anti-CD28 Fab signal” value does the source give for YCDGHSIEYRWKCL [Phage-162] here?
A: The value was 2.18.

Q: How did the “Anti-CD28 Fab signal” value turn out when YCDGHLPQYKAKCL [Phage-160] was run?
A: The value was 2.19.

Q: How did the “Anti-CD28 Fab signal” value turn out when YCDGHLPEYLPKCL [Phage-153] was run?
A: Its value is 2.19.

Q: How did the “Anti-CD28 Fab signal” value turn out when YCDGHLPEYLSKCL [Phage-155] was run?
A: The value was 2.19.

Molecular target: T2, anti-CD28 Fab (SEQ ID NOs: 202, 203)
T2 construct: biotinylated and captured on neutravidin coated plates in the phage ELISA
T2 sequence (VH, as listed by the source, chain 1 of 2): as the sequence (VH, as listed by the source, chain 1 of 2) above
T2 sequence (VL, as listed by the source, chain 2 of 2): as the sequence (VL, as listed by the source, chain 2 of 2) above
Test: phage binding ELISA on captured biotinylated Fab;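 note: clonal phage supernatants added to wells preincubated with CD28 antigen or blocking buffer only, bound phage detected by ELISA with horseradish-conjugated anti-M13 antibody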

Q: How did the “Anti-CD28 Fab (SEQ ID NOs: 202, 203) signal” value turn out when SCSAGAMYTWPTCL [Phage-950] was run?
A: Its value is 2.09.

Q: With TCSAGAYYTWPYCF [Phage-948] as the binder, how does the “Anti-CD28 Fab (SEQ ID NOs: 202, 203) signal” value read?
A: The value was 2.09.

Q: QCAAGASYPWPMCL [Phage-951] was tested. Which “Anti-CD28 Fab (SEQ ID NOs: 202, 203) signal” value did it give?
A: The value was 2.08.

Q: Which “Anti-CD28 Fab (SEQ ID NOs: 202, 203) signal” value does the source give for TCSAGASWAWPWCF [Phage-961] here?
A: The value was 2.03.

Q: Which “Anti-CD28 Fab (SEQ ID NOs: 202, 203) signal” value does the source give for MCSAGANYPWPWCL [Phage-979] here?
A: The value was 1.97.

Q: How did the “Anti-CD28 Fab (SEQ ID NOs: 202, 203) signal” value turn out when LCEEFADYPWPMCL [Phage-965] was run?
A: The value was 2.01.

Q: For TCSAGATYEWPWCM [Phage-978], which “Anti-CD28 Fab (SEQ ID NOs: 202, 203) signal” value is on record?
A: Its value is 1.97.

Q: TCAAGAHYTWPECF [Phage-972] was tested. Which “Anti-CD28 Fab (SEQ ID NOs: 202, 203) signal” value did it give?
A: The value was 1.99.

Q: For TCSAGFHYEWPRCL [Phage-963], which “Anti-CD28 Fab (SEQ ID NOs: 202, 203) signal” value is on record?
A: The value was 2.02.

Q: With TCAAGATYKWPACL [Phage-958] as the binder, how does the “Anti-CD28 Fab (SEQ ID NOs: 202, 203) signal” value read?
A: The value was 2.05.

Q: How did the “Anti-CD28 Fab (SEQ ID NOs: 202, 203) signal” value turn out when TCAAVFSYGWPECF [Phage-949] was run?
A: The value was 2.09.

Q: SCAAGATYSWPMCL [Phage-974] was tested. Which “Anti-CD28 Fab (SEQ ID NOs: 202, 203) signal” value did it give?
A: The value was 1.99.

Q: How did the “Anti-CD28 Fab (SEQ ID NOs: 202, 203) signal” value turn out when TCAAGAHYLWPWCM [Phage-955] was run?
A: Its value is 2.05.

Q: How did the “Anti-CD28 Fab (SEQ ID NOs: 202, 203) signal” value turn out when TCAAGATYSWPMCF [Phage-966] was run?
A: Its value is 2.

Q: How did the “Anti-CD28 Fab (SEQ ID NOs: 202, 203) signal” value turn out when TCAAGATYSWPWCF [Phage-971] was run?
A: The value was 1.99.

Q: With MCAAGAHYTWPTCL [Phage-977] as the binder, how does the “Anti-CD28 Fab (SEQ ID NOs: 202, 203) signal” value read?
A: The value was 1.97.

Q: How did the “Anti-CD28 Fab (SEQ ID NOs: 202, 203) signal” value turn out when TCAAGANYPWPYCL [Phage-969] was run?
A: Its value is 1.99.

Q: Which “Anti-CD28 Fab (SEQ ID NOs: 202, 203) signal” value does the source give for TCSAGATYVWPQCF [Phage-956] here?
A: Its value is 2.05.

Q: TCAAGASYAWPWCL [Phage-960] was tested. Which “Anti-CD28 Fab (SEQ ID NOs: 202, 203) signal” value did it give?
A: The value was 2.03.

Q: How did the “Anti-CD28 Fab (SEQ ID NOs: 202, 203) signal” value turn out when QCSAGAAWPWPFCL [Phage-976] was run?
A: Its value is 1.97.

Q: Which “Anti-CD28 Fab (SEQ ID NOs: 202, 203) signal” value does the source give for SCAAVFSYSWPMCF [Phage-973] here?
A: The value was 1.99.

Q: TCAAGATYAWPECL [Phage-953] was tested. Which “Anti-CD28 Fab (SEQ ID NOs: 202, 203) signal” value did it give?
A: The value was 2.08.

Molecular target: T1, Anti-CD28 Fab (SEQ ID NOs: 202, 203)
Test: phage ELISA on captured Fab, wells pre-incubated with CD28 antigen (competitor: CD28);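 note: bound clonal phage detected with an HRP-linked anti-M13 antibody, compared against wells that received blocking buffer alone without CD28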
Protocol: as §1

Q: With YCDGHSPEYMTKCL [Phage-294] as the binder, how does the “Anti-CD28 Fab signal in the presence of CD28” value (shortened to “Anti-CD28 Fab signal … of CD28”) read?
A: Its value is 0.07.

Q: For YCDGHAPEYIYKCL [Phage-164], which “Anti-CD28 Fab signal … of CD28” value is on record?
A: Its value is 0.06.

Q: For YCAGHLPEYFLKCL [Phage-156], which “Anti-CD28 Fab signal … of CD28” value is on record?
A: The value was 0.08.

Q: With YCDGHMPEYIAKCL [Phage-154] as the binder, how does the “Anti-CD28 Fab signal … of CD28” value read?
A: Its value is 0.08.

Q: With YCEGHLPQYLAKCL [Phage-190] as the binder, how does the “Anti-CD28 Fab signal … of CD28” value read?
A: Its value is 0.1.

Q: Which “Anti-CD28 Fab signal … of CD28” value does the source give for YCDGHLEEYKQKCL [Phage-165] here?
A: Its value is 0.08.

Q: How did the “Anti-CD28 Fab signal … of CD28” value turn out when YCDGHAVEYMAKCL [Phage-161] was run?
A: Its value is 0.1.

Q: How did the “Anti-CD28 Fab signal … of CD28” value turn out when YCAGHLPEYMQKCL [Phage-182] was run?
A: The value was 0.09.

Q: Which “Anti-CD28 Fab signal … of CD28” value does the source give for YCDGHSPLYIWKCL [Phage-157] here?
A: The value was 0.09.

Q: For YCDGHSPDYIWKCL [Phage-289], which “Anti-CD28 Fab signal … of CD28” value is on record?
A: Its value is 0.1.

Q: Which “Anti-CD28 Fab signal … of CD28” value does the source give for YCDGHLPEYIEKCL [Phage-159] here?
A: The value was 0.07.

Q: How did the “Anti-CD28 Fab signal … of CD28” value turn out when YCDGHAPEYMLKCL [Phage-151] was run?
A: The value was 0.07.

Q: For YCDGHAPQYMGKCL [Phage-227], which “Anti-CD28 Fab signal … of CD28” value is on record?
A: The value was 0.08.

Q: Which “Anti-CD28 Fab signal … of CD28” value does the source give for YCDGHAPDYMLKCL [Phage-152] here?
A: Its value is 0.09.

Q: With YCMGHAPEYMEKCL [Phage-290] as the binder, how does the “Anti-CD28 Fab signal … of CD28” value read?
A: The value was 0.07.

Q: Which “Anti-CD28 Fab signal … of CD28” value does the source give for YCDGHMPEYMEKCL [Phage-292] here?
A: Its value is 0.09.

Q: Which “Anti-CD28 Fab signal … of CD28” value does the source give for YCDGHMPEYMLKCL [Phage-199] here?
A: Its value is 0.09.

Q: How did the “Anti-CD28 Fab signal … of CD28” value turn out when YCDGHAPQYMLKCL [Phage-194] was run?
A: Its value is 0.09.

Q: How did the “Anti-CD28 Fab signal … of CD28” value turn out when YCDGHKAEYMDKCL [Phage-150] was run?
A: Its value is 0.07.

Q: For YCDGHTQEYIAKCL [Phage-167], which “Anti-CD28 Fab signal … of CD28” value is on record?
A: Its value is 0.06.

Q: How did the “Anti-CD28 Fab signal … of CD28” value turn out when YCDGHSQEYIAKCL [Phage-265] was run?
A: Its value is 0.07.

Q: Which “Anti-CD28 Fab signal … of CD28” value does the source give for YCEGHAEEYMQKCL [Phage-163] here?
A: The value was 0.06.

Q: Which “Anti-CD28 Fab signal … of CD28” value does the source give for YCMGHLPQYMEKCL [Phage-212] here?
A: Its value is 0.08.

Q: YCMGHLPQYMQKCL [Phage-166] was tested. Which “Anti-CD28 Fab signal … of CD28” value did it give?
A: Its value is 0.11.

Q: How did the “Anti-CD28 Fab signal … of CD28” value turn out when YCVGHLPQYMEKCL [Phage-267] was run?
A: Its value is 0.08.

Q: With YCDGHSDEYMAKCL [Phage-185] as the binder, how does the “Anti-CD28 Fab signal … of CD28” value read?
A: Its value is 0.07.

Q: Which “Anti-CD28 Fab signal … of CD28” value does the source give for YCDGHSIEYRWKCL [Phage-162] here?
A: Its value is 0.06.

Q: For YCDGHLPQYKAKCL [Phage-160], which “Anti-CD28 Fab signal … of CD28” value is on record?
A: Its value is 0.09.

Q: Which “Anti-CD28 Fab signal … of CD28” value does the source give for YCDGHLPEYLPKCL [Phage-153] here?
A: The value was 0.09.

Q: YCDGHLPEYLSKCL [Phage-155] was tested. Which “Anti-CD28 Fab signal … of CD28” value did it give?
A: Its value is 0.07.
